Reference: IntAct's records for PubMed 28698298

B1: Eukaryotic translation initiation factor 4E type 2 (Homo sapiens), O60573-1 (parent)
chain: MNNKFDALKDDDSGDHDQNEENSTQKDGEKEKTERDKNQSSSKRKAVVPGPAEHPLQYNYTFWYSRRTPGRPTSSQSYEQNIKQIGTFASVEQFWRFYSHMVRPGDLTGHSDFHLFKEGIKPMWEDDANKNGGKWIIRLRKGLASRCWENLILAMLGEQFMVGEEICGAVVSVRFQEDIISIWNKTASDQATTARIRDTLRRVLNLPPNTIMEYKTHTDSIKMPGRLGPQRLLFQNLWKPRLNVP
partner: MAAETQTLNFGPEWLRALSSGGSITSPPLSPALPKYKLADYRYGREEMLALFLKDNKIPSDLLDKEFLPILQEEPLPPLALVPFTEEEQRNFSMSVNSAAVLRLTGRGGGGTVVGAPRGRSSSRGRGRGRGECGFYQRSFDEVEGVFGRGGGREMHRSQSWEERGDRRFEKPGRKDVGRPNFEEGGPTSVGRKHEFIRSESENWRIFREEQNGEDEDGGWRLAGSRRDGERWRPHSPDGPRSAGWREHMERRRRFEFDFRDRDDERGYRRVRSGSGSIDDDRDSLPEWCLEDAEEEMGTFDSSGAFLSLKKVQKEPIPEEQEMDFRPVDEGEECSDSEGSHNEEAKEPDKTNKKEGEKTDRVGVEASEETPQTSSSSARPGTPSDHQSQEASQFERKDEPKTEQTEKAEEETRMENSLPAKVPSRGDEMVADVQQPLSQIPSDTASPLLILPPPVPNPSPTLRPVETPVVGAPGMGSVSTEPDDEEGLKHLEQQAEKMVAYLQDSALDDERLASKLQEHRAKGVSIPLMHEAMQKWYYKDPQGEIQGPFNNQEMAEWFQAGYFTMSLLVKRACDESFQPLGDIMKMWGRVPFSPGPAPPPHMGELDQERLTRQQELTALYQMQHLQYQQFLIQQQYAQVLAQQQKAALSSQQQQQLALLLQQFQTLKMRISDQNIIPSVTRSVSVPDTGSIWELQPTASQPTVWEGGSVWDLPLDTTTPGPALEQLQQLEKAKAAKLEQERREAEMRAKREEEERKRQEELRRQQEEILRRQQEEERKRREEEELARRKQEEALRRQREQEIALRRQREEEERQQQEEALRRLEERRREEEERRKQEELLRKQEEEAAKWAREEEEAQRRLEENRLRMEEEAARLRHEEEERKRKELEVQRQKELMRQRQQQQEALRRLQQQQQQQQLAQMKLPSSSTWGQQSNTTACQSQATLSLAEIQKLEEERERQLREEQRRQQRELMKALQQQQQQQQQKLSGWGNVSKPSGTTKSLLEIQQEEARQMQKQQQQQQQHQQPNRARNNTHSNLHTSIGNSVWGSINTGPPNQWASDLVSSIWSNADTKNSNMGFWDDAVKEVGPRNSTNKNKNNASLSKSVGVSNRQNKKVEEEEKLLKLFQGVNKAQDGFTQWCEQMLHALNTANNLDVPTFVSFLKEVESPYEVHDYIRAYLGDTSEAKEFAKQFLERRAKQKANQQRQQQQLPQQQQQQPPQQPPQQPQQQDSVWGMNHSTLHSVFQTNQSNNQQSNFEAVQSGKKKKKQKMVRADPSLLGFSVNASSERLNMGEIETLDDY
B2: Eukaryotic translation initiation factor 4E type 2 (Homo sapiens), O60573-1 (parent)
chain: B1 chain

Variants of: B1
Conditions: with GIGYF2, Q6Y7W6-1

Q: Which “effect of a mutation on the interaction” value does the source give for MNNKFDALKDDDSGDHDQNEENSTQKDGEKEKTERDKNQSSSKRKAVVPGPAEHPLQYNYTFWYSRRTPGRPTSSQSYEQNIKQAGTFASVEQFWRFYSHAVRPGDLTGHSDFHLFKEGIKPMWEDDANKNGGKWIIRLRKGLASRCWENLILAMLGEQFMVGEEICGAVVSVRFQEDIISIWNKTASDQATTARIRDTLRRVLNLPPNTIMEYKTHTDSIKMPGRLGPQRLLFQNLWKPRLNVP [I85A;M101A] here?
A: with no effect

Q: For MNNKFDALKDDDSGDHDQNEENSTQKDGEKEKTERDKNQSSSKRKAVVPGPAEHPLQYNYTFWYSRRTPGRPTSSQSYEQNIKQIGTFASVEQFARFYSHMVRPGDLTGHSDFHLFKEGIKPMWEDDANKNGGKWIIRLRKGLASRCWENLILAMLGEQFMVGEEICGAVVSVRFQEDIISIWNKTASDQATTARIRDTLRRVLNLPPNTIMEYKTHTDSIKMPGRLGPQRLLFQNLWKPRLNVP [W95A], which “effect of a mutation on the interaction” value is on record?
A: with no effect

Variants of: B1
Conditions: with GIGYF2, Q6Y7W6-1
Remark: another data set of the same source

Q: For MNNKFDALKDDDSGDHDQNEENSTQKDGEKEKTERDKNQSSSKRKAVVPGPAEHPLQYNYTFWYSRRTPGRPTSSQSYEQNIKQAGTFASVEQFWRFYSHAVRPGDLTGHSDFHLFKEGIKPMWEDDANKNGGKWIIRLRKGLASRCWENLILAMLGEQFMVGEEICGAVVSVRFQEDIISIWNKTASDQATTARIRDTLRRVLNLPPNTIMEYKTHTDSIKMPGRLGPQRLLFQNLWKPRLNVP [I85A;M101A], which “effect of a mutation on the interaction” value is on record?
A: decreasing interaction strength

Q: Which “effect of a mutation on the interaction” value does the source give for MNNKFDALKDDDSGDHDQNEENSTQKDGEKEKTERDKNQSSSKRKAVVPGPAEHPLQYNYTFWYSRRTPGRPTSSQSYEQNIKQIGTFASVEQFARFYSHMVRPGDLTGHSDFHLFKEGIKPMWEDDANKNGGKWIIRLRKGLASRCWENLILAMLGEQFMVGEEICGAVVSVRFQEDIISIWNKTASDQATTARIRDTLRRVLNLPPNTIMEYKTHTDSIKMPGRLGPQRLLFQNLWKPRLNVP [W95A] here?
A: decreasing interaction strength

Variants of: B1
Conditions: with ggyf2_human GIGYF2, Q6Y7W6

Q: Which “effect of a mutation on the interaction” value does the source give for MNNKFDALKDDDSGDHDQNEENSTQKDGEKEKTERDKNQSSSKRKAVVPGPAEHPLQYNYTFWYSRRTPGRPTSSQSYEQNIKQAGTFASVEQFWRFYSHAVRPGDLTGHSDFHLFKEGIKPMWEDDANKNGGKWIIRLRKGLASRCWENLILAMLGEQFMVGEEICGAVVSVRFQEDIISIWNKTASDQATTARIRDTLRRVLNLPPNTIMEYKTHTDSIKMPGRLGPQRLLFQNLWKPRLNVP [I85A;M101A] here?
A: decreasing interaction strength

Q: Which “effect of a mutation on the interaction” value does the source give for MNNKFDALKDDDSGDHDQNEENSTQKDGEKEKTERDKNQSSSKRKAVVPGPAEHPLQYNYTFWYSRRTPGRPTSSQSYEQNIKQIGTFASVEQFWRFYSHMVLPGDLTGHSDFHLFKEGIKPMWEDDANKNGGKWIIRLRKGLASRCWLNLILAMLGEQFMVGEEICGAVVSVRFQEDIISIWNKTASDQATTARIRDTLRRVLNLPPNTIMEYKTHTDSIKMPGRLGPQRLLFQNLWKPRLNVP [R103L;E149L] here?
A: disrupting interaction strength

Q: MNNKFDALKDDDSGDHDQNEENSTQKDGEKEKTERDKNQSSSKRKAVVPGPAEHPLQYNYTFWYSRRTPGRPTSSQSYEQNIKQIGTFASVEQFARFYSHMVRPGDLTGHSDFHLFKEGIKPMWEDDANKNGGKWIIRLRKGLASRCWENLILAMLGEQFMVGEEICGAVVSVRFQEDIISIWNKTASDQATTARIRDTLRRVLNLPPNTIMEYKTHTDSIKMPGRLGPQRLLFQNLWKPRLNVP [W95A] was tested. Which “effect of a mutation on the interaction” value did it give?
A: disrupting interaction strength

Variants of: B1
Conditions: with GIGYF2, Q6Y7W6-1
Remark: another data set of the same source

Q: Which “effect of a mutation on the interaction” value does the source give for MNNKFDALKDDDSGDHDQNEENSTQKDGEKEKTERDKNQSSSKRKAVVPGPAEHPLQYNYTFWYSRRTPGRPTSSQSYEQNIKQIGTFASVEQFWRFYSHMVRPGDLTGHSDFHLFKEGIKPMWEDDANKNGGKWIIRLRKGLASRCWENLILAMLGESFDVGEEICGAVVSVRFQEDIISIWNKTASDQATTARIRDTLREVLNLPPNTIMEYKTHTDSIKMPGRLGPQRLLFQNLWKPRLNVP [Q159S;M161D;R202E] here?
A: with no effect

Variants of: B2
Conditions: with 4ebp1_human EIF4EBP1, Q13541
4ebp1_human EIF4EBP1, Q13541, sequence (Q13541 whole entry): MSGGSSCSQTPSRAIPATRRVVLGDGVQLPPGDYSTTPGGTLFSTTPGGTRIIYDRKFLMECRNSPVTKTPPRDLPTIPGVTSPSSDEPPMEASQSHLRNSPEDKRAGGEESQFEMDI

Q: With MNNKFDALKDDDSGDHDQNEENSTQKDGEKEKTERDKNQSSSKRKAVVPGPAEHPLQYNYTFWYSRRTPGRPTSSQSYEQNIKQIGTFASVEQFARFYSHMVRPGDLTGHSDFHLFKEGIKPMWEDDANKNGGKWIIRLRKGLASRCWENLILAMLGEQFMVGEEICGAVVSVRFQEDIISIWNKTASDQATTARIRDTLRRVLNLPPNTIMEYKTHTDSIKMPGRLGPQRLLFQNLWKPRLNVP [W95A] as the variant, how does the “effect of a mutation on the interaction” value read?
A: disrupting interaction strength

Q: For MNNKFDALKDDDSGDHDQNEENSTQKDGEKEKTERDKNQSSSKRKAVVPGPAEHPLQYNYTFWYSRRTPGRPTSSQSYEQNIKQAGTFASVEQFWRFYSHAVRPGDLTGHSDFHLFKEGIKPMWEDDANKNGGKWIIRLRKGLASRCWENLILAMLGEQFMVGEEICGAVVSVRFQEDIISIWNKTASDQATTARIRDTLRRVLNLPPNTIMEYKTHTDSIKMPGRLGPQRLLFQNLWKPRLNVP [I85A;M101A], which “effect of a mutation on the interaction” value is on record?
A: disrupting interaction strength

Variants of: B2
Conditions: with 4ebp1_human EIF4EBP1, Q13541
Remark: another data set of the same source

Q: MNNKFDALKDDDSGDHDQNEENSTQKDGEKEKTERDKNQSSSKRKAVVPGPAEHPLQYNYTFWYSRRTPGRPTSSQSYEQNIKQIGTFASVEQFWRFYNHMVRPGDLTGHSDFHLFKEGIKPMWEDDANKNGGKWIIRLRKGLASRCWENLILAMLGEQFMVGEEICGAVVSVRFQEDIISIWNKTASDQATTARIRDTLRRVLNLPPNTIMEYKTHTDSIKMPGRLGPQRLLFQNLWKPRLNVP [S99N] was tested. Which “effect of a mutation on the interaction” value did it give?
A: increasing interaction strength
